US20220280636A1 (Merck Sharp & Dohme, published 2022)

Experiments:
[1] = target: T1, rabbit whole molecule IgG (rabbit); assay: SPR; IgG amine coupled to CM5 chip, construct flowed at 750 ug/ml; end-point RU of association phase
T1 construct: Immobilised partner in SPR; also called Rabbit IgG; Rabbit IgG Whole Molecule

[2] = target: T2, human whole molecule IgG (human); assay: as above
T2 construct: Immobilised partner in SPR; also called Human IgG; Human IgG Whole Molecule

[3] = target: T3, guinea pig whole molecule IgG (guinea pig); assay: as above
T3 construct: Immobilised partner in SPR; also called Guinea Pig IgG

[4] = target: T4, mouse whole molecule IgG (mouse); assay: as above
T4 construct: Immobilised partner in SPR; also called Mouse IgG

[5] = target: T5, human IgG Fc (human); assay: as above
T5 construct: domain: Fc; Immobilised partner in SPR; also called human IgG Fc domain

[6] = target: T6, gI-2t 262 (HSV-2, UniProt P06764 21-262); assay: SEC-MALS of the gE-2t 417 / gI-2t 262 heterodimer complex
T6 construct: Partner of gE-2t 417 in the SEC-MALS analysis of complex formation; also called soluble gI-2; not shown: glycine linker and thrombin-cleavable 6-Histidine tag

B1: gE-2t 417 (other)
chain: AAPRTSWKRVTSGEDVVLLPAPAGPEERTRAHKLLWAAEPLDACGPLRPSWVALWPPRRVLETVVDAACMRAPEPLAIAYSPPFPAGDEGLYSELAWRDRVAVVNESLVIYGALETDSGLYTLSVVGLSDEARQVASVVLVVEPAPVPTPTPDDYDEEDDAGVSERTPVSVPPPTPPRRPPVAPPTHPRVIPEVSHVRGVTVHMETPEAILFAPGETFGTNVSIHAIAHDDGPYAMDVVWMRFDVPSSCAEMRIYEACLYHPQLPECLSPADAPCAVSSWAYRLAVRSYAGCSRTTPPPRCFAEARMEPVPGLAWLASTVNLEFQHASPQHAGLYLCVVYVDDHIHAWGHMTISTAAQYRNAVVEQHLPQRQPEPVEPTRPHVRAPPPAPSARGPLR
notes: Monomer, mammalian expression; also called gE-2t 417 WT; gE-2t 417 wild type; not shown: glycine linker and thrombin-cleavable 6-Histidine tag
- RU Post Association [1]: 11 RU
- RU Post Association [2]: 4 RU
- RU Post Association [3]: 5 RU
- RU Post Association [4]: 10 RU
- RU Post Association [5]: 5 RU
- binding result [6]: binds
